Reference: the DeepSol protein solubility set

Assay: soluble on expression in E. coli; label from the status in PepcDB or PDB records

Sequence | soluble on expression in E. coli
MSLRQGKIRVVLADDHTMFRQGLKEMLLTGGDIEVVGEAEDGRAALEEIRRHKPDVAILDVEMPEMDAREVMVRLPEASPHTRAVIVTVFAEARLARELVRLGARAYVTKNATLQELLAAVRSAARAAGGDNVLLAVPRGLIEGSGGPEGCELSERELEILLLVARGLSNRQVASELHLAEATVKRHLANVYAKLNVGSRGEAVRKALSKGWFTSRDVTEGHHHHHH | soluble
MSLRSDSFEILRDCRALFLKHLGALLLDSGIISGSAIRAIQEGAGAYFDEMVSTTRRGSFSEEAHGLTSSRITLVGEDDLELGIRLDNLSARLFETTGGSLWRTHLRFVTLLRRPDLPKSANPIGPKGICQGLTTMFAASGASSIEQKLALLDRIEVYLLANLPGLYAEINDFLDRGGIEAAQATILGSPDGPKQADQSSANPLLALQQQLLARLPGGIASIQPPTGTGGAAASLLSQASLEQLIFRLNELDRQGAFRAQFKPGTSLSTESLIPELFSGSTAKASLPKALNSAELGIPSTATEGLAIDTLAIIFEAIFSEPTLPDTLKAAISSLQITLLKMAMKDASLFTDDKHPARLVIDRMGQAVLGLPTDVPARHPVCARLFEIASQLRSGNGDISAFQSALTQLDALVAERNNELAKSAAAYLPLLRQLDRRDEASIQTRHILDKLIEQKPPEAVQAFLNESWRKVLQLVWLENGPDSSQWQAHVTAIEELLWSFQPKTDPAERKSLAHRLPNILKLLKTGMERIGLPTEAQEAFLDDCFTLQTQALRAAPAAETGATSVIAATGLHASGSETVYGDVQSGQFVLNTLDFSDYQPGPARSLSCAIGDWLELRIDDSTTRVARICYISPNSQRTLLLNPDFGLALAIHPAILDRQLRAGEARIRSASSLFEIAASRALQKTTTNEGHHHHHH | soluble
MSLRSKLFLILTLHRSGSSATAGVLYHLGVHMGQHLLKENESNPKGHFENEEFVAVNDRILHTIGGSWKKPPSPELIKQLKIPRRQVETFLLQHAKPAWGIKDPRMLLTFDLWKGPMERVADITYIIVHRPIKESIASLVRRNDMTELEAQQILLPYLGNKQRIREQLVEEGADIIDVHFSDLLQHPDELVAAVNQRLGRAPKKRLDDVRLFLDHSLKHEGHHHHHH | soluble
MSLRVLKFGGTSVANAERFLRVADILESNARQGQVATVLSAPAKITNHLVAMIEKTISGQDALPNISDAERIFAELLTGLAAAQPGFPLAQLKTFVDQEFAQIKHVLHGISLLGQCPDSINAALICRGEKMSIAIMAGVLEARGHNVTVIDPVEKLLAVGHYLESTVDIAESTRRIAASRIPADHMVLMAGFTAGNEKGELVVLGRNGSDYSAAVLAACLRADCCEIWTDVDGVYTCDPRQVPDARLLKSMSYQEAMELSYFGAKVLHPRTITPIAQFQIPCLIKNTGNPQAPGTLIGASRDEDELPVKGISNLNNMAMFSVSGPGMKGMVGMAARVFAAMSRARISVVLITQSSSEYSISFCVPQSDCVRAERAMQEEFYLELKEGLLEPLAVTERLAIISVVGDGMRTLRGISAKFFAALARANINIVAIAQGSSERSISVVVNNDDATTGVRVTHQMLFNTDQVIEVFVIGVGGVGGALLEQLKRQQSWLKNKHIDLRVCGVANSKALLTNVHGLNLENWQEELAQAKEPFNLGRLIRLVKEYHLLNPVIVDCTSSQAVADQYADFLREGFHVVTPNKKANTSSMDYYHLLRHAAEKSRRKFLYDTNVGAGLPVIENLQNLLNAGDELMKFSGILSGSLSYIFGKLDEGMSFSEATTLAREMGYTEPDPRDDLSGMDVARKLLILARETGRELELADIEIEPVLPAEFNAEGDVAAFMANLSQLDDLFAARVAKARDEGKVLRYVGNIDEDGVCRVKIAEVDGNDPLFKVKNGENALAFYSHYYQPLPLVLRGYGAGNDVTAAGVFADLLRTLSWKLGVEGHHHHHH | soluble
MSLRYFVFATFKVHKDATNSYFSNGDVVVVNRNRTPKYKDFIVYKVGKIFYISRVIGEPNQKVRVMDDILYLNDVFKDEPYIEKMKNAYSEKKDGQMPFTSDFSVETLTRNKESRVPKGSYLVLNDNRQNKNDSRKFGLIKEKDIRGVITFKVYPLSEFGFTASEGHHHHHH | soluble
MSLRYLSESKVAIKHSNDLNGSNLNVALLMGAGNPSSAEDALYLKEYINSPDMLAVLDKQLDFRQAFGHSGWDFFYHLSDSATREQFLNYYRNRISVSYDDKTGLLTIGTQGFSPEFAQKFNQAVLKESERFINEEGHHHHHH | soluble
MSLSAAEAGPLQGGLHVLIVDDNDINLKVLSTFMSKIGCSYDTASNGLVAVEKYRQTQQKFDYVLMDISMPIMDGITASRTIREYEDESLLERCTIMAVTGVASSDMQQQAFAAGMDDYLVKPLSLHDLKRILGVNEGHHHHHH | not soluble
MSLSADKLYIDKELSWLSFNERVLQEAADKTVPLIERIRFLGIFSNNLDEFYKVRFADVKRQILINRERGGNDISKHLLSRMQSKALKLNQDFDNLYNELILEMARRRIFLVNETQLDEIQLKWVKKYFHKEVLPHVTPIMLRDDIDVMQFLKDEYAYIAVEMRSGDEFKYALIEIPTDQLPRFVMLPEQKGKRRKTIILLDNIIRLCLDEIFRGFYDYDTLNGYAMKMTRDAEYDLRHEVEYSLLEQMSEGLSQRLTALPVRFVYEREMPEAMLKFLCYKLKISHYDSLIPGGRYHNFKDFISFPNVGRDYLENKPLPPMTCADFEGYANAFDAIRAQDILLHYPYHSFEHMTELVRQASFDPKVVSIKINIYRVAKDSKLMNSLVDAVHNGKRVVVVVELQARFDEEANIEWSRILTDAGVHVIFGVPGMKIHAKLLLITRKEGDEFVRYAHIGTGNFHERTARIYTDFALLTANQELAAEVRAVFGYIENPFRPVKFNHLIVSPRNSRTQIYRLLDSEIANAKAGKKAAITLKVNNLVDKGLINKLYGASAAGVKIRMIIRGMCSLVPGVEGVSDNIEIISIIDRFLEHPRVLVVHNDGNPQVFISSADWMERNIDHRIEVMAPIRDERLKQRIIDILNIQFIDTVKARRIDKEMSNQYVERGNRRKVRSQIAIYDYLKNVEKQTRKAKGQQETNDNSSQEGHHHHHH | soluble
MSLSAMARKVKITDVKCMIVRGTWDWNLIKIETDSGLYGIGEAYWGWGVKDLVVNKMKGIIVGEDPLNVDKLYTKMLMQSAGAGAIGGVTMTAASGIEIALWDLCGRILDTPVCNLLGGRFRDRIRFYRTTQAVKNVEDTKEWRALAESARAEKWGWTAFKFQGDGIPPRADPEFKEPGHDPYARNLTHKDHRRIVTAMETVRETLGPDADFAVECHWRYDTQDVISLGKELEPVKPMWLEDPVPPDNIEAMQRVTHAINVPVCTGENLYGRQGFRKLIEMQACSGVHIDIPKSGGLMESKKISDLADLYYIWTACHNPASPVGTIASCHASAAMREFRIHELANWVDWWPDLVIREGPFWKDGYFTIQDKPGYGVELNPDVAKAHLAPGETWWGEGHHHHHH | not soluble
MSLSASPELADKKGIRACPFDEPKASDEINTGFMKIFTGGDTITARALYKEPIYFKPQFKPFLLCNELPTIKSDDDGTWRRLKVIPFLSKFIKHSEATKKMKKEGLPKNHFWADTSLSEKLPDWKQGFMCLLLKYFRKYRKHGLIHPKLVTQHTVEYRKKCDVFQDFIGDYLVRVDNTKKGISVMDLYQNMREWYKSNYTGKCPNAKDLRNYVQHRMPTYNKNAEGHHHHHH | not soluble
MSLSDKKVLCVEDEEVIRSNLMETLELFFDKVSGAKDGFEALEQAMCDTYDVFIFDISIPHLDGLEVLKRVRQFNKKTPIVILSAHKEQEYLWRAVELKITRYLTKPYDKNSLIKALEEVALELMDYHPLFQISPLHSYDFCRKAMTCKGEMVYLSKKREPTEGHHHHHH | not soluble
MSLSDVSRILKEARSQSRLTTLDYAEQIFDDFMELHGDRHFADDGAIVGGIGLLDGQAVTVIGVQKGKNLQDNLNRNFGQPNPEGYRKALRLMKQAEKFKRPVVTFINTAGAYPGIGAEERGQGEAIARNLLEMSDLKVPIIAIIIGEGGSGGALALAVADKVWMLEHTMYAVLSPEGFASILWKDGSRSIEAAELMKITAGELLKMEVVDKVIPEHGYFSSEIIQMLKTNLIEELKNLDQYPLNDLLEKRYQRFRKYEGHHHHHH | soluble
MSLSEEDLEKFLIKELTLQGYERLNLSDINDLESNFKLQLQRLNNISFSPTEWESFYRQNITNLKLTFEDKTKMLQSDGFTLTLEKEDGSKKNIILIDRVNPINNHLQVISQLKNENGEFKNRYDVSILVNGLPLVHIELKRRGVNLKEAFNQIRRYQKESFLEGNALYEFVQIFIISNGTLTKYYSNTNEGHHHHHH | soluble
